The values below come from the Immune Epitope Database (IEDB).

Assay [1] addresses HLA-A*26:01. Nature of the assay: IEDB peptide-MHC binding, purified MHC/competitive/radioactivity; filed as Kd, often an IC50 or EC50 that approximates it; ≥ and ≤ were set here for values at or beyond the usual limits of such assays.
Assay [2] deals with HLA-A*29:02. The description is as above.
The target in assay [3] is HLA-A*23:01. The assay is described as above.
Assay [4] deals with HLA-A*01:01. Described as above.
Assay [5] addresses HLA-A*24:02. The description is as above.
Assay [6] concerns the target HLA-A*30:02. Described as above.
Assay [7] addresses HLA-B*44:02. Described as above. The note with it: source organism: Dengue virus 2 Jamaica/1409/1983.
In assay [8] the target is HLA-A*69:01. Nature of the assay: IEDB peptide-MHC binding, purified MHC/direct/fluorescence; filed as Kd, often an IC50 or EC50 that approximates it; ≥ and ≤ were set here for values at or beyond the usual limits of such assays.
Assay [9] deals with HLA-B*15:01. The description is as above. The note with it: source organism: Salmonella enterica subsp. enterica serovar Typhimurium.
Assay [10] addresses HLA-A*02:01. The assay is described as above.
The target in assay [11] is HLA-A*30:01. Kind of assay: IEDB peptide-MHC binding, purified MHC/competitive/radioactivity; filed as Kd, often an IC50 or EC50 that approximates it; ≥ and ≤ were set here for values at or beyond the usual limits of such assays.
For assay [12], the target named is HLA-A*03:01. Described as above.
Assay [13] deals with HLA-A*11:01. The description is as above.
Assay [14] has as its target HLA-B*57:01. Kind of assay: IEDB peptide-MHC binding, purified MHC/direct/fluorescence; filed as Kd, often an IC50 or EC50 that approximates it; ≥ and ≤ were set here for values at or beyond the usual limits of such assays.
The target in assay [15] is HLA-B*58:01. The description is as above.
For assay [16], the target named is HLA-B*46:01. Nature of the assay: IEDB peptide-MHC binding, purified MHC/competitive/fluorescence; filed as Kd, often an IC50 or EC50 that approximates it; ≥ and ≤ were set here for values at or beyond the usual limits of such assays. Conditions: source organism: Cryptosporidium parvum Iowa II.
Assay [17] deals with HLA-A*02:03. Kind of assay: IEDB peptide-MHC binding, purified MHC/competitive/radioactivity; filed as Kd, often an IC50 or EC50 that approximates it; ≥ and ≤ were set here for values at or beyond the usual limits of such assays. Conditions: source organism: Vaccinia virus WR.
The target of assay [18] is HLA-A*02:02. The assay is described as above. The note with it: source organism: Vaccinia virus WR.
Assay [19] deals with HLA-A*02:06. The description is as above. Conditions: source organism: Vaccinia virus WR.
The target of assay [20] is HLA-B*07:02. Nature of the assay: IEDB peptide-MHC binding, purified MHC/direct/fluorescence; filed as Kd, often an IC50 or EC50 that approximates it; ≥ and ≤ were set here for values at or beyond the usual limits of such assays. The note with it: source organism: Mycobacterium avium 104.
Assay [21] has as its target HLA-B*51:01. Kind of assay: IEDB peptide-MHC binding, purified MHC/competitive/fluorescence; filed as Kd, often an IC50 or EC50 that approximates it; ≥ and ≤ were set here for values at or beyond the usual limits of such assays. Conditions: source organism: Mycobacterium tuberculosis C.
The target of assay [22] is HLA-A*68:01. Nature of the assay: IEDB peptide-MHC binding, purified MHC/competitive/radioactivity; filed as Kd, often an IC50 or EC50 that approximates it; ≥ and ≤ were set here for values at or beyond the usual limits of such assays. The note with it: source organism: Vaccinia virus WR.
Assay [23] concerns the target HLA-A*31:01. The assay is described as above. Conditions: source organism: Vaccinia virus WR.
Assay [24] addresses HLA-A*33:01. The description is as above. The note with it: source organism: Vaccinia virus WR.
Setting [25] is: source organism: SARS coronavirus Tor2.
Where [26] appears, read: source organism: Mammarenavirus guanaritoense.
Setting [27] is: source organism: Salmonella enterica subsp. enterica serovar Typhimurium.
The mark [28] stands for this setting: source organism: Dengue virus 2 Jamaica/1409/1983.
Setting [29] is: source organism: Cryptosporidium hominis.
Where [30] appears, read: source organism: Lassa virus GA391.
[31] abbreviates: source organism: Vaccinia virus WR.
Setting [32] is: source organism: Mammarenavirus machupoense.
Where [33] appears, read: source organism: Lymphocytic choriomeningitis virus (strain Armstrong).
Where [34] appears, read: source organism: Burkholderia mallei.
The mark [35] stands for this setting: source organism: Hyphomonas neptunium.
Where [36] appears, read: source organism: Mammarenavirus juninense.
[37] abbreviates: source organism: Mammarenavirus whitewaterense.

Consider IDATSTGNY, for which the Kd in [1] (setting [25]) is 1.05 µM; in assay [2] (setting [25]), 0.447 µM; in [3] (setting [25]), at least 77.8 µM; in assay [4] (setting [25]), 3.72 µM; in [5] (setting [25]) it was at least 73.8 µM; in [6] (setting [25]) it was 8.59 µM.

QQICSNFKI: the values for the Kd in assay [2] (setting [26]), in assay [3] (setting [26]) and in [5] (setting [26]) were 3.77 µM, 0.0988 µM and 13.1 µM, respectively.

In the case of KDLISYGGGW, the Kd in assay [7] stood at 0.31 µM.

On to ITLVYKVYY, for which the Kd in assay [1] (setting [25]) was 1.64 µM; in assay [2] (setting [25]) it was 0.00164 µM; in assay [3] (setting [25]), at least 57.7 µM; in assay [4] (setting [25]) it was 0.0449 µM; in [5] (setting [25]), at least 77.6 µM; in assay [6] (setting [25]), 0.00519 µM.

Take YTTTIKPVSY: the Kd in [1] (setting [25]) is 0.878 µM; in assay [2] (setting [25]), 0.0316 µM; in [3] (setting [25]) it was at least 70 µM; in [4] (setting [25]), 0.0416 µM; in [5] (setting [25]), at least 70.3 µM; in [6] (setting [25]) it was 1.02 µM.

As for GLIEEMASA, the values for the Kd in assay [8] (setting [27]), in assay [9] and in assay [10] (setting [27]) were at least 20.9 µM, 4.5 µM and 0.02 µM, respectively.

Turning to RTLAKEGIK, the results for the Kd in [11] (setting [28]) and in assay [12] (setting [28]) were 0.217 µM and 0.03 µM, respectively.

As to LTSRATWAK, the figures for the Kd in assay [11] (setting [28]), in [13] (setting [28]) and in assay [12] (setting [28]) were 0.176 µM, 0.0448 µM and 0.0586 µM, respectively.

As to MSFSDTFEM, the Kd in assay [14] (setting [29]) worked out at 0.0553 µM; in [15] (setting [29]), 0.0006 µM; in assay [16], 0.205 µM.

Turning to AMQKESDDY, the Kd in assay [1] (setting [25]) is at least 65.3 µM; in assay [2] (setting [25]), 15.5 µM; in assay [3] (setting [25]), at least 77.8 µM; in assay [4] (setting [25]), 2.74 µM; in [5] (setting [25]), at least 77.6 µM; in assay [6] (setting [25]), 0.126 µM.

With EGNETPGGY, the Kd was at least 77.9 µM in assay [1] (setting [30]); 18.6 µM in assay [2] (setting [30]); 0.174 µM in assay [3] (setting [30]); at least 20.9 µM in assay [4] (setting [30]); 1.21 µM in assay [5] (setting [30]); at least 76.9 µM in [6] (setting [30]).

With MTSTRTIIL, the Kd in assay [17] stood at 0.84 µM; in [11] (setting [31]), 0.267 µM; in assay [18] it was 1.34 µM; in [19] it was 6.79 µM.

As for LGYPFAWFL, the Kd was found to be 0.307 µM in assay [8] (setting [27]), 0.831 µM in [10] (setting [27]) and 0.102 µM in [15] (setting [27]).

As to AIRAGYSIV, the Kd in assay [17] came to 0.000211 µM; in [11] (setting [31]) it was 0.00142 µM; in assay [18] it was 1.2 µM; in assay [19] it was 8.06 µM.

Turning to LCMLNNSLYY, the Kd in assay [1] (setting [32]) is at least 69.7 µM; in assay [2] (setting [32]), 0.00719 µM; in [3] (setting [32]), at least 40.4 µM; in assay [4] (setting [32]), 0.367 µM; in assay [5] (setting [32]) it was at least 55.2 µM; in assay [6] (setting [32]), 0.181 µM.

As to KTIVESCGNY, the Kd in assay [1] (setting [25]) is 1.35 µM; in assay [2] (setting [25]), 0.844 µM; in [3] (setting [25]) it was at least 70 µM; in assay [4] (setting [25]), 0.24 µM; in assay [5] (setting [25]), at least 70.3 µM; in [6] (setting [25]), 0.00169 µM.

In the case of FYAYLRKHF, the Kd is at least 77.9 µM in assay [1] (setting [25]); at least 46 µM in assay [2] (setting [25]); at least 23.9 µM in assay [3] (setting [25]); at least 78.1 µM in [4] (setting [25]); at least 31.8 µM in assay [5] (setting [25]); at least 125 µM in assay [6] (setting [25]).

As to AICSAVPSHW, in assay [7], the Kd was found to be 0.181 µM.

In the case of ICISLSNSF, the Kd was at least 77.9 µM in [1] (setting [33]); at least 78.9 µM in assay [2] (setting [33]); at least 77.7 µM in assay [3] (setting [33]); at least 21.4 µM in [4] (setting [33]); at least 77.5 µM in [5] (setting [33]); at least 76.9 µM in assay [6] (setting [33]).

Turning to FTSCELYHY, the Kd in assay [1] (setting [25]) was 0.811 µM; in [2] (setting [25]) it was 0.00357 µM; in assay [3] (setting [25]), at least 38.1 µM; in assay [4] (setting [25]) it was 0.00173 µM; in [5] (setting [25]) it was at least 35.8 µM; in assay [6] (setting [25]), 0.365 µM.

On to VGIPTHRHL, for which the Kd in assay [1] (setting [32]) was at least 77.9 µM; in assay [2] (setting [32]) it was at least 78.9 µM; in [3] (setting [32]) it was 14 µM; in assay [4] (setting [32]), at least 69.4 µM; in [5] (setting [32]), at least 40.3 µM; in assay [6] (setting [32]), 14.3 µM.

In the case of VMMSAPPAEY, the Kd was 9.02 µM in assay [1] (setting [25]); 0.00316 µM in [2] (setting [25]); at least 39.9 µM in assay [3] (setting [25]); 0.154 µM in assay [4] (setting [25]); at least 35.6 µM in [5] (setting [25]); 0.00431 µM in assay [6] (setting [25]).

Consider TPKFTRMVV, for which the Kd is 0.104 µM in [20] and at least 20 µM in assay [21].

Take LAASVFFTF: the Kd turned out to be 2.14 µM in assay [14] (setting [34]) and 0.203 µM in assay [15] (setting [34]).

As to LENLMWKQI, the Kd in assay [7] was 0.0222 µM.

Consider ALTPPFHPY, for which the Kd is at least 20 µM in [8] (setting [35]) and 9 µM in assay [10] (setting [35]).

As for PYNSVTDTI, the Kd was at least 77.9 µM in [1] (setting [25]); 6.82 µM in assay [2] (setting [25]); 0.0203 µM in assay [3] (setting [25]); at least 78.1 µM in assay [4] (setting [25]); 0.00716 µM in [5] (setting [25]); at least 81.1 µM in assay [6] (setting [25]).

Regarding ALEVLMSPCR, the Kd is at least 38.5 µM in assay [2] (setting [31]); 0.465 µM in assay [22]; 0.0424 µM in assay [23]; 6.33 µM in assay [13] (setting [31]); 0.328 µM in [12] (setting [31]); 0.254 µM in assay [24].

Take AMGKPVPYCY: the Kd in assay [1] (setting [25]) was at least 49.4 µM; in assay [2] (setting [25]), 0.0895 µM; in assay [3] (setting [25]), at least 70 µM; in [4] (setting [25]) it was 1.99 µM; in assay [5] (setting [25]), at least 70.3 µM; in assay [6] (setting [25]), 0.0011 µM.

Take LVIASLPLF: the Kd in assay [2] (setting [36]) stood at 1.21 µM; in assay [3] (setting [36]), 0.0191 µM; in [5] (setting [36]), 0.484 µM.

Take LLQFIVFLL: the Kd in [2] (setting [37]) is at least 23.4 µM; in assay [3] (setting [37]), 18.8 µM; in assay [5] (setting [37]), at least 77.5 µM.

Turning to DTSNPKTPKY, the Kd in [1] (setting [25]) is 1.26 µM; in [2] (setting [25]), 0.367 µM; in assay [3] (setting [25]), at least 70 µM; in assay [4] (setting [25]), 0.194 µM; in [5] (setting [25]), at least 70.3 µM; in [6] (setting [25]), 0.0489 µM.

For LYIIKLVFLW, the dissociation constant Kd in assay [1] (setting [25]) is 1.17 µM; in [2] (setting [25]), at least 31.8 µM; in assay [3] (setting [25]), 0.000165 µM; in [4] (setting [25]), 13.6 µM; in assay [5] (setting [25]), 0.0209 µM; in assay [6] (setting [25]), at least 85.7 µM.
